7 molecules from patent WO2010007376A2 (dated 2010) can be followed below.

Assay [1] concerns the target T1, recombinant human CD28/Fc Chimera (R&D Systems, Abingdon, UK) (human, UniProt P10747 19-152).
T1 construct: Bought reagent; Fc part of the bought chimera not given
Description: BIAcore, CM5 chip coated with 12500 RU of CD28-Fc; dAb concentration not given. In general terms: SPR reads the build-up and loss of mass on a sensor chip optically.

The target of assay [2] is T1, recombinant human CD28/Fc Chimera (R&D …). The experiment in a line: BIAcore, CM5 chip coated with 12500 RU of CD28-Fc; dAb at 57.5 uM.
Assay [3] shares this target. The experiment in a line: BIAcore, CM5 chip coated with 12500 RU of CD28-Fc; dAb at 16.6 uM.
Assay [4] shares this target. The experiment in a line: BIAcore, CM5 chip coated with 12500 RU of CD28-Fc; dAb at 42.3 uM.
Assay [5] has the same target. Description: BIAcore, CM5 chip coated with 12500 RU of CD28-Fc; dAb at 19.4 uM.
Assay [6] shares this target. Description: BIAcore, CM5 chip coated with 12500 RU of CD28-Fc; dAb at 13.8 uM.

B1: DOM21-38 (other)
VH: EVQLLESGGGLVQPGGSLRLSCAASGFTFILYDMQWVRQAPGKGLEWVSRISANGHDTYYADSVKGRFTISRDNSKNTLYLQMNSLRAEDTAVYYCAKGPHYLFDYWGQGTLVTVSS
notes: Human VH antibody single variable domain (dAb), expressed from pDOM5 and purified
In the case of B1, in assay [1], the binding result was “binds”.

B2: DOM21-20 (other)
VH: EVQLLESGGGLVQPGGSLRLSCAASGFTFPAYSMIWVRQAPGKGLEWVSTISPLGYSTYYADSVKGRFTISRDNSKNTLYLQMNSLRAEDTAVYYCAEQTAYLNRATEHFDYWGQGTLVTVSS
notes: as for B1
With B2, the binding result in assay [2] is reported as “binds”.

B3: DOM21-28 (other)
VL: DIQMTQSPSSLSASVGDRVTITCRASQSISHSLVWYQQKPGKAPKLLIYWASLLQSGVPSRFSGSGSGTDFTLTISSLQPEDFATYYCQQGMTTPFTFGQGTKVEIKR
notes: Human VK antibody single variable domain (dAb), expressed from pDOM5 and purified
As to B3, the binding result in assay [3] was “binds”.

B4: DOM21-4 (other)
VH: EVQLLESGGGLVQPGGSLRLSCAASGFTFSRYHMAWVRQAPGKGLEWVSVIDSLGLQTYYADSVKGRFTISRDNSKNTLYLQMNSLRAEDTAVYYCAEYGGAFDYWGQGTLVTVSS
notes: Human VH antibody single variable domain (dAb) from a DP47/JH4b library, expressed from pDOM5 and purified
For B4, in assay [4], the binding result is “binds”.

B5: DOM21-44 (other)
VH: EVQLLESGGGLVQPGGSLRLSCAASGFTFARYTMVWVRQAPGKGLEWVSAIHFDGRTTYYADSVKGRFTISRDNSKNTLYLQMNSLRAEDTAVYYCAKNEWASLKHFDYWGQGTLVTVSS
notes: as for B1
Take B5: the binding result in assay [1] is recorded as “binds”.

B6: DOM21-22 (other)
VH: EVQLLESGGGLVQPGGSLRLSCAASGFTFELYQMGWVRQAPGKGLEWVSTIMPSGNLTYYADSVKGRFTISRDNSKNTLYLQMNSLRAEDTAVYYCAKMWSLNLGFHAAFDYWGQGTLVTVSS
notes: as for B1
For B6, the binding result in assay [5] is “binds”.

B7: DOM21-18 (other)
VL: DIQMTQSPSSLSASVGDRVTITCRASQYIGTSLNWYQQKPGKAPKLLTYQASLLQSGVPSRFSGSGSGTDFTLTISSLQPEDFATYYCQQLALRPMTFGQGTKVEIKR
notes: Human VK (DPK9/JK1) antibody single variable domain (dAb), expressed from pDOM5 and purified
For the molecule B7, the binding result in assay [6] was “binds”.
